Experimental data: patent publication US20250019439A1 (Adimab, published 2025)

Key:
[1] = biological target: T1, CTL-62240; experiment: SPR Carterra, CHO anti-ID
T1 construct: also called ONO-4685
Description: (§1) Kinetic analysis was conducted at 25° C. in an HBSTE running buffer system (Carterra Cat #3630) using a Carterra LSA (Carterra USA, Salt Lake City, UT). The sample compartment was maintained at 20° C. for the duration of each experiment.
(§2) For antibody capture experiments, a goat anti-human Fc antibody (Jackson ImmunoResearch) was covalently coupled to an HC30M sensor chip surface via standard amine coupling (1:1 EDC:NHS) and then blocked with ethanolamine (1.0 M, pH 8.5). Covalent coupling steps were performed in 25 mM MES buffer (Carterra, Cat #3625) plus 0.05% Tween20. The anti-CD3 antibodies (100 nM in running buffer) were flowed over discrete regions of interest on the chip surface for 5 minutes. […] Dissociation of the anti-idiotype antibodies was monitored for 300s. Several blank buffer samples were injected over the entire chip surface at the start of each non-regenerative kinetic cycle. The preceding blank buffer injection was used for blank surface subtraction. At the end of each non-regenerative kinetic cycle, all surfaces were regenerated via two 30s injections of 10 mM glycine, pH 1.7.
(§3) In Tables 10A-10C, anti-CD3 antibodies are listed by ADI number or CTL number in the first column. […] CTL-62223 is mosunetuzumab, CTL-62227 is odronextamab, CTL-62228 is glofitamab, and CTL-62240 is ONO-4685. […] “W.B.” means weak binding under the conditions of this assay and thus a KD was unable to be assigned. “N.B.” means no binding under the conditions of this assay.

[2] = biological target: T2, CTL-62227; experiment: SPR Carterra, CHO anti-ID
T2 construct: also called odronextamab
Description: as §1, §2, §3

[3] = biological target: T3, CTL-62228; experiment: SPR Carterra, CHO anti-ID
T3 construct: also called glofitamab
Description: as §1, §2, §3

[4] = biological target: T4, ADI-74966; experiment: SPR Carterra avidity, yeast anti-ID
T4 construct: pH-dependent anti-CD3 antibody made in CHO cells
Method in brief: (§4)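 Anti-CD3 IgGs (100 nM) captured on goat anti-human Fc amine-coupled HC30M chip; anti-idiotype antibodies flowed as analytes, dissociation 300 s, HBSTE running buffer, 25° C. Double-referenced sensorgrams fitted to 1:1 model; glycine pH 1.7 regeneration.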

[5] = biological target: T5, ADI-70326; experiment: SPR Carterra, CHO anti-ID
T5 construct: anti-CD3 antibody made in CHO cells, captured by anti-human Fc
Description: as §1, §2, §3

[6] = biological target: T6, CTL-62223; experiment: SPR Carterra, yeast anti-ID
T6 construct: also called mosunetuzumab
Method in brief: as §4

[7] = biological target: T1, CTL-62240; experiment: SPR Carterra, yeast anti-ID
Method in brief: as §4

[8] = biological target: T2, CTL-62227; experiment: SPR Carterra, yeast anti-ID
Method in brief: as §4

[9] = biological target: T3, CTL-62228; experiment: SPR Carterra, yeast anti-ID
Method in brief: as §4

[10] = biological target: T7, ADI-67445; experiment: SPR Carterra, yeast anti-ID
T7 construct: anti-CD3 antibody made in CHO cells, captured by anti-human Fc
Method in brief: as §4

[11] = biological target: T8, ADI-70327; experiment: SPR Carterra, yeast anti-ID
T8 construct: anti-CD3 antibody made in CHO cells, captured by anti-human Fc
Method in brief: as §4

[12] = biological target: T9, ADI-26916 IgG; experiment: BLI; tip ADI-34145 IgG, solution anti-CD3 IgG
T9 construct: anti-CD3 IgG
Description: (§5) ForteBio affinity measurements were performed generally as previously described (Estep et al., MAbs. 2013 5(2):270-8). Briefly, ForteBio affinity measurements were performed by loading antibody IgG or Fabs on-line onto AHC sensors. Sensors were equilibrated off-line in assay buffer for 30 minutes and then monitored on-line for 60 seconds for baseline establishment. For avid binding measurement, sensors with loaded antibodies were exposed to IgG or Fab solutions for 3 minutes, afterwards they were transferred to assay buffer for 3 minutes for off-rate measurement. Kinetics data were fit using a 1:1 binding model in the data analysis software provided by ForteBio to obtain equilibrium dissociation constant (KD=koff/kₒₙ) values. In each column, tip-immobilized antibodies are listed first and solution antibodies second.
(§6) In each column, tip-immobilized antibodies are listed first and solution antibodies second.

[13] = biological target: T10, ADI-22523 IgG; experiment: BLI; tip ADI-34145 IgG, solution anti-CD3 IgG
T10 construct: anti-CD3 IgG
Description: as §5, §6

[14] = biological target: T11, ADI-26913 IgG; experiment: BLI; tip ADI-34145 IgG, solution anti-CD3 IgG
T11 construct: anti-CD3 IgG
Description: as §5, §6

[15] = biological target: T12, ADI-26920 IgG; experiment: BLI; tip ADI-34145 IgG, solution anti-CD3 IgG
T12 construct: anti-CD3 IgG
Description: as §5, §6

[16] = biological target: T13, ADI-26954 IgG; experiment: BLI; tip ADI-34145 IgG, solution anti-CD3 IgG
T13 construct: anti-CD3 IgG
Description: as §5, §6

[17] = biological target: T14, ADI-26906 IgG; experiment: BLI; tip ADI-34145 IgG, solution anti-CD3 IgG
T14 construct: anti-CD3 IgG
Description: as §5, §6

[18] = biological target: T15, CTL-19672 anti-CD3 bsIgG (In the assay the two domains were one scFv (VL-VH orientation, linker not given). It replaced one Fab arm of an anti-HER2 IgG; S354C and Y349C mutations are stated for disulfide stabilization.); experiment: BLI; tip anti-CD3 bsIgG, solution ADI-34145 IgG
T15 construct: anti-HER2 IgG with one Fab arm replaced by the anti-CD3 scFv (printed 'Vx-VH', read as VL-VH); S354C and Y349C mutations; not shown: scFv linker between VL and VH; anti-HER2 heavy and light chains of the other arm; hinge and Fc (with S354C / Y349C)
Description: as §5
(§7) Additional analysis was conducted using bispecific antibody formats incorporating anti-CD3 antibody variable domains. Bispecific antibodies were prepared using standard IgG formats (bsIgG) with replacement of Fab arms with anti-CD3 scFvs in Vx-VH orientation and with S354C and Y349C mutations for disulfide stabilization. Antibodies used for Fab arm replacement were anti-HER2 IgG antibodies, with one Fab arm from each replaced by a scFv corresponding to a different anti-CD3 antibody. […] In each column, tip-immobilized antibodies are listed first and solution antibodies second. Anti-CD3 antibodies associated with incorporated scFvs are listed by antibody number.

[19] = biological target: T16, ADI-22523 anti-CD3 bsIgG (In the assayed molecule VL and VH are joined as one scFv (printed 'Vx-VH' orientation) by an undisclosed linker and fused to an Fc, paired with an anti-HER2 half-IgG. They are given here as two …); experiment: BLI; tip anti-CD3 bsIgG, solution ADI-34145 IgG
T16 construct: anti-HER2 IgG with one Fab arm replaced by the anti-CD3 scFv (printed 'Vx-VH', read as VL-VH); S354C and Y349C mutations; not shown: scFv linker between VL and VH; anti-HER2 heavy and light chains; hinge and Fc with S354C/Y349C
Description: as §5, §7

T1 sequence (VH, as listed by the source, chain 1 of 2): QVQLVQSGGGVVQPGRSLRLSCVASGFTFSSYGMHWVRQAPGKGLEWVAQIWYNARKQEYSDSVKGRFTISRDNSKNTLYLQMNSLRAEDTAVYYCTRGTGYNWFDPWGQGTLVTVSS
T1 sequence (VL, as listed by the source, chain 2 of 2): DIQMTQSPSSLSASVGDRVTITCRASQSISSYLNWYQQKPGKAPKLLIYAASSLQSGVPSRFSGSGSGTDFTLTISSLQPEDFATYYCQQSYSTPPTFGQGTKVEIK
T2 sequence (VH, as listed by the source, chain 1 of 2): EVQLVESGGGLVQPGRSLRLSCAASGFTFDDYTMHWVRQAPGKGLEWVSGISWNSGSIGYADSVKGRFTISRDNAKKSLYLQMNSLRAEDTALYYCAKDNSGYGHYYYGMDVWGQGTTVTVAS
T2 sequence (VL, as listed by the source, chain 2 of 2): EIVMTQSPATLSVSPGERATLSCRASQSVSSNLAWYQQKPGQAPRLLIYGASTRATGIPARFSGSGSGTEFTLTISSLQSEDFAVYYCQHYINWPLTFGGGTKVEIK
T14 sequence (VH, as listed by the source limits assumed, chain 1 of 2): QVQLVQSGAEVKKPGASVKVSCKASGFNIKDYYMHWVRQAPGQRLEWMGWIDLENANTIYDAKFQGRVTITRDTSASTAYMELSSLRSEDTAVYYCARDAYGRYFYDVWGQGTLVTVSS
T14 sequence (VL, as listed by the source limits assumed, chain 2 of 2): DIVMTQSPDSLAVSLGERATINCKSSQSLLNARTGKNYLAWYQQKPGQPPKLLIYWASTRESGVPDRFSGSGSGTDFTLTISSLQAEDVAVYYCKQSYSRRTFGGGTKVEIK
T12 sequence (VH, as listed by the source limits assumed, chain 1 of 2): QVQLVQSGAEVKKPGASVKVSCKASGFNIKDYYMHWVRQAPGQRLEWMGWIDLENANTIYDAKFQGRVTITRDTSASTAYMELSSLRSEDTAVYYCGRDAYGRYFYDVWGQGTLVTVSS
T12 sequence (VL, as listed by the source limits assumed, chain 2 of 2): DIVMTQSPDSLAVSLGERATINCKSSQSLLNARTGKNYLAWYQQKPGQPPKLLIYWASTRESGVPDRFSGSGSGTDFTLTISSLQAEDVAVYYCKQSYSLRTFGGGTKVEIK
T11 sequence (VH, as listed by the source limits assumed, chain 1 of 2): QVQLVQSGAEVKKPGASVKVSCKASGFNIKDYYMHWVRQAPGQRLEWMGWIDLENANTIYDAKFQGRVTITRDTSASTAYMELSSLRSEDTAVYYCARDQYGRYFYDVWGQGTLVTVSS
T13 sequence (VH, as listed by the source limits assumed, chain 1 of 2): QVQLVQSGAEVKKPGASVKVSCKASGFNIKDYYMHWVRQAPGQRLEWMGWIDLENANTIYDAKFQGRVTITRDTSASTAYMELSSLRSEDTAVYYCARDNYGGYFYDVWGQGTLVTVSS
T13 sequence (VL, as listed by the source limits assumed, chain 2 of 2): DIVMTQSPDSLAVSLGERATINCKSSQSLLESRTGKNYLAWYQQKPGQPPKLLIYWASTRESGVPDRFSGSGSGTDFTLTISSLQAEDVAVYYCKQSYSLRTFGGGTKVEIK
T4 sequence (VH, as listed by the source, chain 1 of 2): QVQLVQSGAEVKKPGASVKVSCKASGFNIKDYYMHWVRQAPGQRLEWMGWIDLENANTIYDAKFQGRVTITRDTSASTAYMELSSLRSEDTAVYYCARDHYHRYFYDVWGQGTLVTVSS
T4 sequence (VL, as listed by the source, chain 2 of 2): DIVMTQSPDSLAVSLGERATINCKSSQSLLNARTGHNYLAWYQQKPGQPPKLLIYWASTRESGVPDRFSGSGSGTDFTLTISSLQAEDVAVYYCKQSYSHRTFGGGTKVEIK
T16 sequence (VH, as listed by the source limits assumed, chain 1 of 2): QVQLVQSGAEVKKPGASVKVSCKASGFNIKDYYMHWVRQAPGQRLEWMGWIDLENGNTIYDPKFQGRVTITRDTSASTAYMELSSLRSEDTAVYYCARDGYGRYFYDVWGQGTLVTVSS
T16 sequence (VL, as listed by the source limits assumed, chain 2 of 2): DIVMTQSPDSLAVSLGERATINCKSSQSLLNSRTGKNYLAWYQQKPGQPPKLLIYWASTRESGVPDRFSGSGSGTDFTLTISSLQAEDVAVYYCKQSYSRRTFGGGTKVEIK
T7 sequence (VH, as listed by the source limits assumed, chain 1 of 2): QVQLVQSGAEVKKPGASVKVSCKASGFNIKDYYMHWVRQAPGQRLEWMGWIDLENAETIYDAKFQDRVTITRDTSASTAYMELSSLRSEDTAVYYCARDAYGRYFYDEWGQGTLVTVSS
T15 sequence (VH, as listed by the source limits assumed, chain 1 of 2): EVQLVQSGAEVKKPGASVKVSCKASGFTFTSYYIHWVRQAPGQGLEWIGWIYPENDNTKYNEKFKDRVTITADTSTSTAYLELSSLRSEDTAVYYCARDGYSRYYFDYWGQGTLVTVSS
T15 sequence (VL, as listed by the source limits assumed, chain 2 of 2): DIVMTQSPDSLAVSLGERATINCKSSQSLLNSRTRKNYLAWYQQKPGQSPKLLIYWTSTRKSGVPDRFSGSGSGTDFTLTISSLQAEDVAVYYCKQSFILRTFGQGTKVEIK
T6 sequence (VH, as listed by the source, chain 1 of 2): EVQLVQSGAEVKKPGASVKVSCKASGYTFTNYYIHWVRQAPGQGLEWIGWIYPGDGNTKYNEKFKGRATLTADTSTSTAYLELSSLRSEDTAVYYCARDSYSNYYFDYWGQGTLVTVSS
T6 sequence (VL, as listed by the source, chain 2 of 2): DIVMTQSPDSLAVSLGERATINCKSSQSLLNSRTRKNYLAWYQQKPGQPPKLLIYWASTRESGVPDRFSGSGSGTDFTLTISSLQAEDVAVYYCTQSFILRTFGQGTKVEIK
T9 sequence (VH, as listed by the source, chain 1 of 2): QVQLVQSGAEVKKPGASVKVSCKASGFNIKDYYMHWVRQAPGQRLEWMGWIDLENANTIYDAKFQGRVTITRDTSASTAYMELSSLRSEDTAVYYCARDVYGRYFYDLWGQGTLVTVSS
T8 sequence (VH, as listed by the source limits assumed, chain 1 of 2): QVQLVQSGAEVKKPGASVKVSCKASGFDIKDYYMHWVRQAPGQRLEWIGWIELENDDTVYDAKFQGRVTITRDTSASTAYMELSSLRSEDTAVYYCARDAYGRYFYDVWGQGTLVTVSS
T8 sequence (VL, as listed by the source limits assumed, chain 2 of 2): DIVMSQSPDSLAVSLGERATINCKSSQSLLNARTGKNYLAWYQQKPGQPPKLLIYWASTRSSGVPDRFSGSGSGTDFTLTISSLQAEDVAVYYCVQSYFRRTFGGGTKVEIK
T5 sequence (VH, as listed by the source limits assumed, chain 1 of 2): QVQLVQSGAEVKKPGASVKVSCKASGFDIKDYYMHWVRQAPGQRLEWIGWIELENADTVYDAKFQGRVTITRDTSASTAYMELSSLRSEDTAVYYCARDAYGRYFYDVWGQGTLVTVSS

Binder | binding result [1] | binding result [2] | binding result [3] | Kd [4] | binding result [5] | binding result [6] | binding result [7] | binding result [8] | binding result [9] | binding result [10] | binding result [11] | Kd [12] | Kd [13] | Kd [14] | Kd [15] | Kd [16] | Kd [17] | binding result [18] | Kd [19]
ADI-34134 IgG (antibody, V domains shown) VH: QVQLVQSGAEVKKPGSSVKVSCKASGGTFSSYAISWVRQAPGQGLEWMGGIIPIFGTANYAQKFQGRVTITADESTSTAYMELSSLRSEDTAVYYCARGAPNYYGSGGYDDGWFDPWGQGTLVTVSS VL: EIVLTQSPGTLSLSPGERATLSCRASQSVSSDYLAWYQQKPGQAPRLLIYGASSRATGIPDRFSGSGSGTDFTLTISRLEPEDFAVYYCQQFGRVPTFGGGTKVEIK | no binding (tested: up to 200 nM) | no binding (tested: up to 200 nM) | no binding (tested: up to 200 nM) | 52 nM | – | – | – | – | – | – | – | – | – | – | – | – | – | – | –
ADI-34145 IgG (antibody, V domains shown, anti-ID IgG) VH: EVQLLESGGGLVQPGGSLRLSCAASGFTFSSYAMSWVRQAPGKGLEWVSTISGSGGSTYYADSVKGRFTISRDNSKNTLYLQMNSLRAEDTAVYYCARLGGRRGSGSSYYYYYGMDVWGQGTTVTVSS VL: not shown | – | – | – | – | no binding (tested: up to 200 nM) | no binding (tested: up to 200 nM) | no binding (tested: up to 200 nM) | no binding (tested: up to 200 nM) | no binding (tested: up to 200 nM) | no binding (tested: up to 200 nM) | no binding (tested: up to 200 nM) | 48 nM | 2.72 nM | 8.1 nM | 14.3 nM | 7.75 nM | 8.39 nM | no binding | 9.13 nM
